{"source": "paper PMC3082930", "key": {"[1]": {"biological_target": "CFP-Kv2.1-K470Q (rat)", "assay": "FRET or BRET"}, "[2]": {"biological_target": "CFP-Kv2.1 (rat) (UniProt P15387)", "assay": "FRET or BRET"}, "[3]": {"biological_target": "GFP-Kv2.1-K470Q (rat)", "assay": "TIRF single-particle photobleaching step counting"}, "[4]": {"biological_target": "Gln-Lys-Gln-Gln tetrameric Kv2.1 construct (rat)", "assay": "TIRF single-particle photobleaching step counting"}, "[5]": {"biological_target": "Gln-Lys-Lys-Gln tetrameric Kv2.1 construct (rat)", "assay": "TIRF single-particle photobleaching step counting"}, "[6]": {"biological_target": "Lys-Gln-Gln-Gln tetrameric Kv2.1 construct (rat)", "assay": "TIRF single-particle photobleaching step counting"}}}
{"substance": "YFP-Kv2.1-K470Q (natural protein)", "values": [{"measurement": "CFP donor photobleaching decay time constant (tau)", "setting": "[1]", "value": 26.2, "unit": "s"}]}
{"substance": "YFP-Ubc9 (from UniProt P63279 1-158) (enzyme)", "values": [{"measurement": "CFP donor photobleaching decay time constant (tau)", "setting": "[2]", "value": 23.2, "unit": "s"}]}
{"substance": "GFP-Kv2.1-K470Q (natural protein)", "values": [{"measurement": "stoichiometry N", "setting": "[3]", "value": 4}]}
{"substance": "GFP-SUMO1_(101) (from UniProt P63165 1-101) (natural protein)", "values": [{"measurement": "stoichiometry N", "setting": "[4]", "value": 1}, {"measurement": "stoichiometry N", "setting": "[5]", "value": 1}, {"measurement": "stoichiometry N", "setting": "[6]", "value": 1}]}
